Laboratory results as given in patent US20180354988A1 (University of California, published 2018).
Changes are numbered by the printed parent chain. Names may count otherwise.

B1: ^C98RhuA (L-rhamnulose-1-phosphate aldolase variant D98C/C126S/E192A) (enzyme)
chain: MQNITQSWFVQGMIKATTDAWLKGWDERNGGNLTLRLDDADIAPYHDNFHQQPRYIPLSQPMPLLANTPFIVTGSGKFFRNVQLDPAANLGIVKVDSCGAGYHILWGLTNEAVPTSELPAHFLSHSERIKATNGKDRVIMHCHATNLIALTYVLENDTAVFTRQLWEGSTECLVVFPDGVGILPWMVPGTDAIGQATAQEMQKHSLVLWPFHGVFGSGPTLDETFGLIDTAEKSAQVLVKVYSMGGMKQTISREELIALGKRFGVTPLASALAL
notes: C4 symmetric homotetramer (4 x 274 residues); Tetramers link to each other through single C98-C98 disulfide bonds at the corners; also called RhuA-C98; Rhu-C98
B2: ^C133RhuA (enzyme)
chain: B1 chain with C98D, N133C
notes: Surface cysteine lies on the sides of the tetramer; also called RhuA-C133
B3: ^C266RhuA (enzyme)
chain: B1 chain with C98D, T266C
notes: Surface cysteine lies on the sides of the tetramer; also called RhuA-C266
B4: ^C98RhuA-HisTag (enzyme)
chain: MQNITQSWFVQGMIKATTDAWLKGWDERNGGNLTLRLDDADIAPYHDNFHQQPRYIPLSQPMPLLANTPFIVTGSGKFFRNVQLDPAANLGIVKVDSCGAGYHILWGLTNEAVPTSELPAHFLSHSERIKATNGKDRVIMHCHATNLIALTYVLENDTAVFTRQLWEGSTECLVVFPDGVGILPWMVPGTDAIGQATAQEMQKHSLVLWPFHGVFGSGPTLDETFGLIDTAEKSAQVLVKVYSMGGMKQTISREELIALGKRFGVTPLASALALGSGSGHHHHHH
notes: also called RhuA-C98-HisTag; C98-His tagged RhuA mutant
B5: ^C98RhuA-Pd4 (enzyme)
chain: MQNITQSWFVQGMIKATTDAWLKGWDERNGGNLTLRLDDADIAPYHDNFHQQPRYIPLSQPMPLLANTPFIVTGSGKFFRNVQLDPAANLGIVKVDSCGAGYHILWGLTNEAVPTSELPAHFLSHSERIKATNGKDRVIMHCHATNLIALTYVLENDTAVFTRQLWEGSTECLVVFPDGVGILPWMVPGTDAIGQATAQEMQKHSLVLWPFHGVFGSGPTLDETFGLIDTAEKSAQVLVKVYSMGGMKQTISREELIALGKRFGVTPLASALALGSGSGTSNAVHPTLRHL
notes: also called C98-RhuA-Pd4 mutant
B6: ^C98RhuA-ACP (enzyme)
chain: MQNITQSWFVQGMIKATTDAWLKGWDERNGGNLTLRLDDADIAPYHDNFHQQPRYIPLSQPMPLLANTPFIVTGSGKFFRNVQLDPAANLGIVKVDSCGAGYHILWGLTNEAVPTSELPAHFLSHSERIKATNGKDRVIMHCHATNLIALTYVLENDTAVFTRQLWEGSTECLVVFPDGVGILPWMVPGTDAIGQATAQEMQKHSLVLWPFHGVFGSGPTLDETFGLIDTAEKSAQVLVKVYSMGGMKQTISREELIALGKRFGVTPLASALALGSGSGSTIEERVKKIIGEQLGVKQEEVTNNASFVEDLGADSLDTVELVMALEEEFDTEIPDEEAEKITTVQAAIDYINGHQA

Key:
[1] = target: the molecule itself; test: disulfide-mediated self-assembly
[2] = target: the molecule itself; test: oxidative self-assembly conditions; TEM
self-assembly, TEM = target: the molecule itself; test: self-assembly, TEM

Row | Protein | binding result [2] | binding result (self-assembly, TEM) | other results
1 | B1 | – | – | binding result [1]: binds
2 | B2 | binds | – | –
3 | B3 | binds | – | –
4 | B4 | – | binds | –
5 | B5 | – | binds | –
6 | B6 | – | binds | –
